Residue numbers refer to the chain shown, from its start.
B1: IgG 1D8 (antibody, V domains shown)
VH: EVQLVESGGGLVQPGGSLKLSCAASGFTFNTYAMNWVRQAPGKGLEWVGRIRSKYNNYATYYADSVKDRFTISRDDSKNTAYLQMNSLKTEDTAVYYCVRHGNFGNSYVSWFAYWGQGTLVTVSS
VL: QTVVTQEPSLTVSPGGTVTLTCRSSTGAVTTSNYANWFQQKPGQAPRGLIGGTNKRAPGTPARFSGSLLGGKAALTLSGAQPEDEAEYYCALWYDGTWVFGGGTKLTVL
notes: also called L3sp34-G1-1-R2-P1_D8
B2: IgG 1F8 (antibody, V domains shown)
VH: B1 VH
VL: B1 VL with T97K
notes: also called L3sp34-G1-2-R2-P1_F8
B3: IgG 1A10 (antibody, V domains shown)
VH: B1 VH
VL: B1 VL with D95K, T97Y
notes: also called L3sp34-G1-2-R2-P1_A10
B4: IgG 1B6 (antibody, V domains shown)
VH: B1 VH
VL: B1 VL with D95A, G96N, T97R
notes: also called L3sp34-G1-1-R2-P1_B6
B5: IgG 1A11 (antibody, V domains shown)
VH: B1 VH
VL: B1 VL with T97W
notes: also called L3sp34-G1-1-R2-P1_A11
B6: IgG 1A4 (antibody, V domains shown)
VH: B1 VH
VL: B1 VL with D95K, G96Q, T97R
notes: also called L3sp34-G1-2-R2-P1_A4

Columns and labels:
[1] = molecular target: T1, human CD3ε on T cells (Jurkat T cell line; CD4+ and CD8+ T cells from healthy human donors) (human, UniProt P07766 23-207); experiment: FACS on CD4+ T cells from PBMCs of healthy donors, antibody at 0.1 µg/ml
T1 construct: whole, on cells
Protocol: (§1) Binding was also evaluated by FACS on different cell populations including T cell lines and natural cell populations derived from healthy blood donors. First, control and antiCD3ε candidates were tested at different concentration on the human T cell line Jurkat. […] Binding to native cell populations was performed by isolating PBMCs from healthy donors and evaluating binding to CD4+ and CD8+ T cells as well as B cells.

[2] = molecular target: T1, human CD3ε on T cells (Jurkat T cell …); experiment: FACS on CD8+ T cells from PBMCs of healthy donors, antibody at 0.1 µg/ml
Protocol: as §1

T1 sequence (P07766 23-207): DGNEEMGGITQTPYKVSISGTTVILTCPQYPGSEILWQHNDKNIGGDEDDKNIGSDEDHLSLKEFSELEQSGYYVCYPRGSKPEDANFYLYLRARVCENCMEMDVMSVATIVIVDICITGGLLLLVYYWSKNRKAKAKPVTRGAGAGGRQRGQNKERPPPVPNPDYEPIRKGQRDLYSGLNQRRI

Binder | MFI on CD4+ T cells [1] | MFI on CD8+ T cells [2]
B1 | 286 MFI | 161 MFI
B2 | 284 MFI | 157 MFI
B3 | 96 MFI | 43 MFI
B4 | 231 MFI | 130 MFI
B5 | 205 MFI | 119 MFI
B6 | 284 MFI | 173 MFI
